Source: PMC10527703 (Structure (London, England : 1993), 2023)

B1: R2R3_2Q (peptide, UniProt P10636-8 294-311, looked up)
peptide: KDNIQHVPGGGSVQIVYK
B2: R1R3_12Q (peptide, UniProt P10636-8 263-274, looked up)
peptide: TENLQHQPGGGQVQIVYK
B3: R1R3_23Q (peptide, UniProt P10636-8 263-274, looked up)
peptide: TENLKHQPGGGQVQIVYQ
B4: R1R3_13Q (peptide, UniProt P10636-8 263-274, looked up)
peptide: TENLQHQPGGGKVQIVYQ

Biological target: the molecule itself
Assay: ThT fluorescence aggregation + negative-stain TEM

Binding result, binds:
B1
B2
B3
B4
